Source: patent US20240132550A1 (GlaxoSmithKline, published 2024)
Residue numbers refer to the chain shown, from its start. Numbers in names are those of the source.

How the values were obtained:
[1] = target: T1, factor H, Human (Merck Millipore) (human, UniProt P08603 19-1231); assay: SPR, full-length human factor H immobilised on CM-5 chip, fHbp analyte at 250 nM
T1 construct: mature; also called full-length factor H protein; full length fH protein

[2] = target: T2, factor H (hfH) domain 6-7 (human, UniProt P08603 321-443); assay: SPR, fH 6-7 immobilised on CM-5 chip, fHbp as analyte
T2 construct: domain: factor H 6-7 domain; also called factor H 6-7 domain; factor H domain 6-7
T2 sequence: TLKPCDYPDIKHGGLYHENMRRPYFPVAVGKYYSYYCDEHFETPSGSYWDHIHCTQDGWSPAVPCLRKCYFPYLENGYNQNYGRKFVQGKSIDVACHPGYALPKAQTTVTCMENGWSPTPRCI

[3] = target: T1, factor H, Human (Merck Millipore); assay: SPR, full-length human factor H immobilised on CM-5 chip, fHbp as analyte

T1 sequence (P08603 19-1231): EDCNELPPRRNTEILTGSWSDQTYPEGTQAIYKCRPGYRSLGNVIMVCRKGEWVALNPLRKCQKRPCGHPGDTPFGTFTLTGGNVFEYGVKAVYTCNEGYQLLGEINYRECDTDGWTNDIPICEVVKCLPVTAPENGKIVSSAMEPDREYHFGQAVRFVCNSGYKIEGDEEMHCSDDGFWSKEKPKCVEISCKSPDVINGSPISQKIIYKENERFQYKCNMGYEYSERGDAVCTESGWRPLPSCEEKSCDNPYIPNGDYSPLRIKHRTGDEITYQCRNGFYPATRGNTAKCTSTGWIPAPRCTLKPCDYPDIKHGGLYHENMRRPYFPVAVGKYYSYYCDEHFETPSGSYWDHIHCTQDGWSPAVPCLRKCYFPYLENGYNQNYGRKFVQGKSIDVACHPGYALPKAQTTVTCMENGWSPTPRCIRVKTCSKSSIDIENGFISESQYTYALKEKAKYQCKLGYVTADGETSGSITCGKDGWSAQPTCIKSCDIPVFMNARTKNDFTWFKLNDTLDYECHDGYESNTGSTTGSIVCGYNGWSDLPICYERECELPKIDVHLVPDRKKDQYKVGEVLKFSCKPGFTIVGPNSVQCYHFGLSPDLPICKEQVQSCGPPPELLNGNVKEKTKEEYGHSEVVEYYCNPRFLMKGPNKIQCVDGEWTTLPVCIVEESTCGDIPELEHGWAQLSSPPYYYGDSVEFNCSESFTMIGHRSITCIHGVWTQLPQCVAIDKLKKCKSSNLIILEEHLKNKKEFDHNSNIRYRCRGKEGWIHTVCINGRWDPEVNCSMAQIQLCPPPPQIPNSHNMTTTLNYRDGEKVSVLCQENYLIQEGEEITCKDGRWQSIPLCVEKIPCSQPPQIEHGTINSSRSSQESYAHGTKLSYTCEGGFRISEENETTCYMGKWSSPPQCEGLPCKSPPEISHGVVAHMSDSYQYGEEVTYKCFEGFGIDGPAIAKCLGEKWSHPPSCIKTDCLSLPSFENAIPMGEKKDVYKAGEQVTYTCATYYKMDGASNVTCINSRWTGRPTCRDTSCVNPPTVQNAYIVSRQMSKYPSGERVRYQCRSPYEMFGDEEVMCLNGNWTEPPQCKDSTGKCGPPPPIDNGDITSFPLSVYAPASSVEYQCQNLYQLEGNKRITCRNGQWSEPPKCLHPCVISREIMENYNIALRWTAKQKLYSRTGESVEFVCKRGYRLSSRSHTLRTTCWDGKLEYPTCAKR

B1: fHbp v1.15 (other)
chain: VAADIGAGLADALTAPLDHKDKGLKSLTLEDSISQNGTLTLSAQGAERTFKAGDKDNSLNTGKLKNDKISRFDFIRQIEVDGQLITLESGEFQVYKQSHSALTALQTEQVQDSEHSGKMVAKRQFRIGDIVGEHTSFGKLPKDVMATYRGTAFGSDDAGGKLTYTIDFAAKQGHGKIEHLKSPELNVDLAAADIKPDEKHHAVISGSVLYNQAEKGSYSLGIFGGQAQEVAGSAEVETANGIRHIGLAAKQLEHHHHHH
Question: Does B1 bind [1]?
Answer: binds

B2: fHbp v1.15 E214A (other)
chain: B1 chain with E214A
notes: also called v1.15 ΔG (E214A) + His tag
Question: Does B2 bind [1]?
Answer: binds

B3: fHbp v1.15 E214A/S219R (other)
chain: VAADIGAGLADALTAPLDHKDKGLKSLTLEDSISQNGTLTLSAQGAERTFKAGDKDNSLNTGKLKNDKISRFDFIRQIEVDGQLITLESGEFQVYKQSHSALTALQTEQVQDSEHSGKMVAKRQFRIGDIVGEHTSFGKLPKDVMATYRGTAFGSDDAGGKLTYTIDFAAKQGHGKIEHLKSPELNVDLAAADIKPDEKHHAVISGSVLYNQAAKGSYRLGIFGGQAQEVAGSAEVETANGIRHIGLAAKQHHHHHH
notes: also called v1.15 ΔG (E214A/S219R)
Question: What does the source list for B3?
Answer: binding result [2]: no binding (tested: 250 nM); binding result [1]: binds

B4: fHbp v1.15 E214A/E235A (other)
chain: B3 chain with R219S, E235A
notes: also called v1.15 ΔG (E214A/E235A)
Question: Does B4 bind [3]?
Answer: no binding (tested: 250 nM)

Question: Does B4 bind [2]?
Answer: no binding (tested: 250 nM)
